Changes are numbered by the printed parent chain.
T1: RAS G12V mutant (KRAS G12V) peptide on HLA-DPB1*03:01 (human)
T1 peptide: TEYKLVVVGAVGV

B1: B13.14.1 TCR mutant α49K-R (TCR, V domains shown)
Valpha: AQSVAQPEDQVNVAEGNPLTVKCTYSVSGNPYLFWYVQYPNRGLQFLLRYITGDNLVKGSYGFEAEFNKSQTSFHLKKPSALVSDSALYFCAVRDGRGGGNKLTFGTGTQLKVEL
Vbeta: DGGITQSPKYLFRKEGQNVTLSCEQNLNHDAMYWYRQDPGQGLRLIYYSQIVNDFQKGDIAEGYSVSREKKESFPLTVTSAQKNPTAFYLCASSPGQRDNSPLHFGNGTRLTVT
B2: B13.14.1 TCR mutant β48Y-M (TCR, V domains shown)
Valpha: B1 Valpha with R49K
Vbeta: B1 Vbeta with Y48M
B3: B13.14.1 TCR mutant α49K-M (TCR, V domains shown)
Valpha: B1 Valpha with R49M
Vbeta: B1 Vbeta
B4: B13.14.1 TCR mutant α49K-E (TCR, V domains shown)
Valpha: B1 Valpha with R49E
Vbeta: B1 Vbeta
B5: B13.14.1 TCR mutant α51I-F (TCR, V domains shown)
Valpha: B1 Valpha with R49K, I51F
Vbeta: B1 Vbeta
B6: B13.14.1 TCR mutant β54D-I (TCR, V domains shown)
Valpha: B1 Valpha with R49K
Vbeta: B1 Vbeta with D54I
B7: B13.14.1 TCR mutant α51I-K (TCR, V domains shown)
Valpha: B1 Valpha with R49K, I51K
Vbeta: B1 Vbeta
B8: B13.14.1 TCR mutant α32Y-K (TCR, V domains shown)
Valpha: B1 Valpha with Y32K, R49K
Vbeta: B1 Vbeta
B9: B13.14.1 TCR mutant α51I-V (TCR, V domains shown)
Valpha: B1 Valpha with R49K, I51V
Vbeta: B1 Vbeta
B10: B13.14.1 TCR mutant β51I-N (TCR, V domains shown)
Valpha: B1 Valpha with R49K
Vbeta: B1 Vbeta with I51N
B11: B13.14.1 TCR mutant β50Q-E (TCR, V domains shown)
Valpha: B1 Valpha with R49K
Vbeta: B1 Vbeta with Q50E
B12: B13.14.1 TCR mutant α32Y-Q (TCR, V domains shown)
Valpha: B1 Valpha with Y32Q, R49K
Vbeta: B1 Vbeta
B13: B13.14.1 TCR mutant α30N-R (TCR, V domains shown)
Valpha: B1 Valpha with N30R, R49K
Vbeta: B1 Vbeta
B14: B13.14.1 TCR mutant α51I-L (TCR, V domains shown)
Valpha: B1 Valpha with R49K, I51L
Vbeta: B1 Vbeta
B15: B13.14.1 TCR mutant α32Y-D (TCR, V domains shown)
Valpha: B1 Valpha with Y32D, R49K
Vbeta: B1 Vbeta

Target: T1, RAS G12V mutant (KRAS G12V) peptide on …
Experiment: Jurkat-NFAT-Luc + B13 LCL loaded with T15; vs wild-type B13.14.1; mTCRβ 96.10%; full-length, on cells
Protocol: (§1) The TCR mutant (MHC-II binding region) lentiviral vector was transduced into the Jurkat-NFAT-Luc cell line, and B13 LCL cells loaded with KRAS-G12V antigen (RAS G12V-T15 peptide, SEQ ID NO: 5) were used as the antigen-presenting cells. 2×10⁴ TCR-T and 2×10⁴ antigen-loaded B13 LCL cells were co-cultured for 16-24 hours, the fluorescence signal expression was detected by adding ONE Glo Luciferase, and TCR Mut RLU/WT RLU (ratio of RLU signal value of TCR mutant to RLU signal value of wild-type B13.14.1TCR) was calculated.

Row | Binder | TCR Mut RLU/WT RLU [%]
1 | B1 | 91.1
2 | B2 | 66.4
3 | B3 | 44.4
4 | B4 | 46.5

Target: T1, RAS G12V mutant (KRAS G12V) peptide on …
Experiment: Jurkat-NFAT-Luc + B13 LCL loaded with T15; vs wild-type B13.14.1; mTCRβ 94.40%; full-length, on cells
Protocol: as §1

Row | Binder | TCR Mut RLU/WT RLU [%]
5 | B5 | 108
6 | B6 | 67.3
7 | B7 | 61.8
8 | B8 | 4
9 | B9 | 48

Target: T1, RAS G12V mutant (KRAS G12V) peptide on …
Experiment: Jurkat-NFAT-Luc + B13 LCL loaded with T15; vs wild-type B13.14.1; mTCRβ 89.00%; full-length, on cells
Protocol: as §1

Row | Binder | TCR Mut RLU/WT RLU [%]
10 | B10 | 7.61
11 | B11 | 2.8
12 | B12 | 3.12

Target: T1, RAS G12V mutant (KRAS G12V) peptide on …
Experiment: activation reporter or marker

Row | Binder | binding result
13 | B8 | no recognition

Target: T1, RAS G12V mutant (KRAS G12V) peptide on …
Experiment: Jurkat-NFAT-Luc + B13 LCL loaded with T15; vs wild-type B13.14.1; mTCRβ 95.20%; full-length, on cells
Protocol: as §1

Row | Binder | TCR Mut RLU/WT RLU [%]
14 | B13 | 88.2
15 | B14 | 75.4
16 | B15 | 4.13

Source: patent US20240000834A1, “RAS MUTANT EPITOPE PEPTIDE AND T CELL RECEPTOR RECOGNIZING RAS MUTANT” (SHANGHAI GENBASE BIOTECHNOLOGY CO., LTD., priority 2020, published 2024)
